# In patent publication US20220235117A1:
# Columns and labels:
# [1] = target: hepatitis B virus surface antigen (HBsAg) (hepatitis B virus); experiment: SPR, Biacore 3000, HBsAg on CM5 chip, antibody as analyte, pH 7.4
# [2] = target: hepatitis B virus surface antigen (HBsAg) (hepatitis B virus); experiment: ELISA, commercial HBsAg plate, well held 30 min in PBS pH 6.0 after binding, GAH-HRP secondary antibody, OD(450/630)
# [3] = target: hepatitis B virus surface antigen (HBsAg) (hepatitis B virus); experiment: ELISA, commercial HBsAg plate, well held 30 min in PBS pH 7.4 after binding, GAH-HRP secondary antibody, OD(450/630)
# [4] = target: hepatitis B virus surface antigen (HBsAg) (hepatitis B virus); experiment: ELISA on commercial HBsAg plate, pH 6.0
# [5] = target: hepatitis B virus surface antigen (HBsAg) (hepatitis B virus); experiment: ELISA on commercial HBsAg plate, pH 7.4
# [6] = target: hepatitis B virus surface antigen (HBsAg) (hepatitis B virus); experiment: ELISA on commercial HBsAg plate, ratio of EC50 at pH 6.0 to pH 7.4
Binder,Kd [1],EC50 (read off the curve) [2],EC50 (read off the curve) [3],EC50 [4],EC50 [5],EC50(pH 6.0)/EC50(pH 7.4) [6]
"anti-HBV humanized antibody M1D (antibody, V domains shown) VH: QVQLQESGPGLVKPSETLSLTCTVSGGSITSNFWSWIRQPPGKGLEWIGYISGSGTYTDYNPSLKSRVTISVDTSKNQFSLKLSSVTAADTAVYYCARSHDYGSNDYAFDFWGQGTTVTVSS VL: DIQMTQSPSSLSASVGDRVTITCRATQDISSSLNWYQQKPGKAPKLLIYYANRLQSGVPSRFSGSGSGTDFTLTISSLQPEDFATYYCQQYHSLPLTFGGGTKVEIK",0.534 nM,0.01 µg/mL,0.01 µg/mL,–,–,–
"A42-23 (antibody, human IgG1, kappa, V domains shown) VH: QVQLQESGPGLVKPSETLSLTCTVSGGSITHNFWSWIRQPPGKGLEWIGYISGYDTYTDYNPSLKSRVTISVDTSKNQFSLKLSSVTAADTAVYYCARSHDYGHHDYAFDFWGQGTTVTVSS VL: DIQMTQSPSSLSASVGDRVTITCRATQDIHHSLNWYQQKPGKAPKLLIYYANRLQSGVPSRFSGSGSGTDFTLTISSLQPEDFATYYCQQYHYLPLTFGGGTKVEIKR",–,–,–,0.345 µg/mL,0.0127 µg/mL,27.2
